Target: T1, GST-DDX6 (wild type), recombinant (UniProt P54823 1-483)
T1 construct: DDX6 (DEAD-box helicase 6); Cloned in pGEX-KG; also called wild-type DDX6; source: E. coli BL21(DE3), purified (Glutathione Sepharose 4B)
T1 sequence (looked up): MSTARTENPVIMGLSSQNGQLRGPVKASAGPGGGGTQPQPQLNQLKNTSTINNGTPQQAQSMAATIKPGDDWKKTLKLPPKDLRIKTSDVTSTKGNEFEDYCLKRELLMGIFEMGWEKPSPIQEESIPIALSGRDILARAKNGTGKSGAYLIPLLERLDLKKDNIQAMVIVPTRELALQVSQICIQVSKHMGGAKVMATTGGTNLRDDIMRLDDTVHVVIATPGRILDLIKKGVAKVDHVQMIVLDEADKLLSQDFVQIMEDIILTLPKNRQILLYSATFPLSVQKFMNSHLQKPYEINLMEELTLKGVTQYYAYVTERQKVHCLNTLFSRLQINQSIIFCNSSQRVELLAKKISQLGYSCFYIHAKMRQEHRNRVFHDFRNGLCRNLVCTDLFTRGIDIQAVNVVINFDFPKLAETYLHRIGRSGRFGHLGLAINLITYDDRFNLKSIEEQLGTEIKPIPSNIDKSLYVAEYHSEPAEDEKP
Assay: BLI; BLItz; 6xHis-MBP-DDX3X^166-590 loaded on Ni-NTA biosensors; GST-DDX6 or GST-DDX6^Mut6 at 125, 250 and 500 nM; 20 mM Tris-HCl pH 8.0, 150 mM KCl, 0.02% Tween 20, DTT, 1 mg/ml BSA; global fit to a 1:1 model
Conditions: both partners purified

B1: 6xHis-MBP-DDX3X^166-590 (domain or fragment, UniProt Q62167 166-590, looked up)
chain: IPVEATGNNCPPHIESFSDVEMGEIIMGNIELTRYTRPTPVQKHAIPIIKEKRDLMACAQTGSGKTAAFLLPILSQIYADGPGEALRAMKENGRYGRRKQYPISLVLAPTRELAVQIYEEARKFSYRSRVRPCVVYGGAEIGQQIRDLERGCHLLVATPGRLVDMMERGKIGLDFCKYLVLDEADRMLDMGFEPQIRRIVEQDTMPPKGVRHTMMFSATFPKEIQMLARDFLDEYIFLAVGRVGSTSENITQKVVWVEEIDKRSFLLDLLNATGKDSLTLVFVETKKGADSLEDFLYHEGYACTSIHGDRSQRDREEALHQFRSGKSPILVATAVAARGLDISNVKHVINFDLPSDIEEYVHRIGRTGRVGNLGLATSFFNERNINITKDLLDLLVEAKQEVPSWLENMAFEHHYKGSSRGRSKS
notes: Cloned in pMCSG9; source: E. coli BL21(DE3), purified (Ni-NTA)
Binder B1 has a Kd of 0.389 µM.

— paper PMC12418388, “DDX6 interacts with DDX3X to repress translation in microRNA-mediated silencing” (Nucleic Acids Research, 2025)
